Data reported in US20240116985A1 (published 2024).
Starred links: 1 amine or outer side, 2 acyl side, 3 side chain; linkers in the order of their positions; H or OH if unused. Positions of bridges follow the written chain, without caps; N, C: chain ends. Non-standard residues stand in square brackets, D forms with d. Primed or numbered codes have the meaning given here. *: point of attachment. PyrS2″ = (S)-3-amino-1-((pent-4-en-1-yloxy)carbonyl)pyrrolidine-3-carboxylic acid (stapling residue), C=CCCCOC(=O)N1CC[C@@](N[*:1])(C(=O)[*:2])C1; B5(18) = 2,2-bis(4-pentenyl)glycine (2-amino-2-(pent-4-en-1-yl)hept-6-enoic acid), stitching residue, C=CCCCC(CCCC=C)(N[*:1])C(=O)[*:2]; B5(24) = 2-amino-2-(pent-4-en-1-yl)hept-6-enoic acid, 2,2-bis(4-pentenyl)glycine (stitching residue), C=CCCCC(CCCC=C)(N[*:1])C(=O)[*:2]; B5(4) = 2,2-bis(4-pentenyl)glycine = 2-amino-2-(pent-4-en-1-yl)hept-6-enoic acid (stitching residue), C=CCCCC(CCCC=C)(N[*:1])C(=O)[*:2]; B5(5) = 2,2-bis(4-pentenyl)glycine, 2-amino-2-(pent-4-en-1-yl)hept-6-enoic acid (stitching residue), C=CCCCC(CCCC=C)(N[*:1])C(=O)[*:2]; B5(33) = 2-amino-2-(pent-4-en-1-yl)hept-6-enoic acid (bis-pentenylglycine, two olefin side chains), C=CCCCC(CCCC=C)(N[*:1])C(=O)[*:2]; PyrS2 = (S)-3-amino-1-((pent-4-en-1-yloxy)carbonyl)pyrrolidine-3-carboxylic acid, C=CCCCOC(=O)N1CC[C@@](N[*:1])(C(=O)[*:2])C1; B5(3) = 2,2-bis(4-pentenyl)glycine (stitching residue), C=CCCCC(CCCC=C)(N[*:1])C(=O)[*:2]; mPEG2 = N-terminal 3-(2-methoxyethoxy)propanoic acid, COCCOCCC(=O)*; Phe(3-CF3) = N[C@@H](Cc1cccc(C(F)(F)F)c1)C(=O)O; Phe(3-OMe) = COc1cccc(C[C@H](N)C(=O)O)c1; Phe(2-Cl) = N[C@@H](Cc1ccccc1Cl)C(=O)O; 2Nal = N[C@@H](Cc1ccc2ccccc2c1)C(=O)O; Bta = N[C@@H](Cc1csc2ccccc12)C(=O)O; Lys(iPr) = CC(C)NCCCC[C@H](N)C(=O)O; αAllylPro = C=CC[C@@]1(C(=O)O)CCCN1; tBuAla = CC(C)(C)C[C@H](N)C(=O)O; Cha = N[C@@H](CC1CCCCC1)C(=O)O; S8 = C=CCCCCCC[C@](C)(N)C(=O)O; Thr(ol) = C[C@@H](O)[C@H](N)CO; Propanoyl(3-OMe) = COCCC(=O)*; Leu(ol) = CC(C)C[C@H](N)CO; Alaol = C[C@@H](CO)N*; Ms = CS(=O)(=O)*

B1: I-1126 (peptide)
peptide: Ac-[αAllylPro]D[Cha][B5(3)]DDAAFS[PyrS2″]F[Bta]Q-NH2
modifications: staple 1-4, 4-11 (inferred); not fully specified (residue 9); printed as Ac-PL3-Asp-Cha-B5-Asp-Asp-Ala-Ala-4F3MeF-Ser-PyrS2-Phe-BztA-Gln-NH2
B2: I-1258 (peptide)
peptide: Ms-[αAllylPro]D[tBuAla][B5(33)]DDAAFN[PyrS2][Phe(2-Cl)][Bta][dT]-NH2
modifications: staple 1-4, 4-11; not fully specified; printed as MeSO2-PL3-Asp-Npg-B5-Asp-Asp-Ala-Ala-Phe-Asn-PyrS2-2C1F-BztA-dThr-NH2
B3: I-1260 (peptide)
peptide: XDXXDDAAFTXFXQ
modifications: not fully specified; MeSO2-PL3-Asp-Npg-B5-Asp-Asp-Ala-Ala-Phe-Thr-S8-2C1F-BztA-Gln-NH2; stapled by olefin metathesis (PL3-B5 and B5-S8)
B4: I-1120 (peptide)
peptide: Ac-[αAllylPro]D[Cha][B5(3)]DDAAFS[PyrS2″][Phe(2-Cl)][Bta]Q-NH2
modifications: staple 1-4, 4-11 (inferred); not fully specified (residue 9); printed as Ac-PL3-Asp-Cha-B5-Asp-Asp-Ala-Ala-4F3MeF-Ser-PyrS2-2C1F-BztA-Gln-NH2
B5: I-1123 (peptide)
peptide: Ac-[αAllylPro]D[tBuAla][B5(3)]DDAAFL[PyrS2″][Phe(2-Cl)][Bta]Q-NH2
modifications: staple 1-4, 4-11 (inferred); not fully specified (residue 9); printed as Ac-PL3-Asp-Npg-B5-Asp-Asp-Ala-Ala-4F3MeF-Leu-PyrS2-2C1F-BztA-Gln-NH2

Columns and labels:
Experiment in all cases: cell-based or functional assay
B-cat-Halo [1] = biological target: T1, B-cat-Halo (UniProt P35222 1-781)
T1 sequence (looked up): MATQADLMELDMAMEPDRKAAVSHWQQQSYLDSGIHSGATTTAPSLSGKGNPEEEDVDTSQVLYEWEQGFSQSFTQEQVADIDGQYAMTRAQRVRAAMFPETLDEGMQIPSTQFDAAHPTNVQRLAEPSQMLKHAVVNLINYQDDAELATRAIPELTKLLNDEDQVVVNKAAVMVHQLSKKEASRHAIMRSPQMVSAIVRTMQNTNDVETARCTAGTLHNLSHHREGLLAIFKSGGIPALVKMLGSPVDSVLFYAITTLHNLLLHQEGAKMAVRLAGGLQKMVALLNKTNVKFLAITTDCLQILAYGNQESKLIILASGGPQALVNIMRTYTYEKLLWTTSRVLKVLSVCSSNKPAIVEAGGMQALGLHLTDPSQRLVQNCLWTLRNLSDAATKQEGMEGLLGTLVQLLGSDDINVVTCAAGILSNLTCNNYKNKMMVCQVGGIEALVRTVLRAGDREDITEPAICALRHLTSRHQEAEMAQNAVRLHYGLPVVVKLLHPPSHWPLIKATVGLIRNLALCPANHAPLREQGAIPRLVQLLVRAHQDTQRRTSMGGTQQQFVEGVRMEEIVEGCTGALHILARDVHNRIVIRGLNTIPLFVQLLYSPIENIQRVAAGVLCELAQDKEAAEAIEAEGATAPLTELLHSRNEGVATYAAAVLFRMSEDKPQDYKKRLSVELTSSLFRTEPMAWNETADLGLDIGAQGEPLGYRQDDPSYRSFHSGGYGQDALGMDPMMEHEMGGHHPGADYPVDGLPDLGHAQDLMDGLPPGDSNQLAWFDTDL

B-cat-Halo [2] = biological target: T2, B-cat-Halo (UniProt P35222 1-781); remark: listed apart in the source
T2 sequence (looked up): T1 sequence (looked up)

[3] = biological target: T3, B-cat-Halo (beta-catenin HaloTag NanoBRET construct expressed in HEK293 cells) (Homo sapiens (Human), UniProt P35222 1-781)
T3 sequence: T1 sequence (looked up)

Binder	NanoBRET Abs IC50 (B-cat-Halo [2]) [µM]	NanoBRET Abs IC50 [3] [µM]	further results
Ac-[αAllylPro]D[tBuAla][B5(18)]DNAAFT[PyrS2″][Phe(2-Cl)][Bta]S-NH2 (staple 1-4, 4-11) [I-1016]	–	–	NanoBRET Abs IC50 (B-cat-Halo [1]): 21.4 µM
Ac-[αAllylPro]D[tBuAla][B5(18)]DDAAFS[PyrS2″][Phe(2-Cl)][Bta]Q-NH2 (staple 1-4, 4-11) [I-1017]	–	–	NanoBRET Abs IC50 (B-cat-Halo [1]): 8.9 µM
B1	26.8	–	–
Ac-[αAllylPro]D[tBuAla][B5(4)]DDAAFL[PyrS2″][Phe(2-Cl)][Bta]Q-NHEt (staple 1-4, 4-11) [I-1248]	–	29.7	–
mPEG2-[αAllylPro]D[tBuAla][B5(33)]DDAAFT[S8][Phe(2-Cl)][Bta]Q-NH2 (staple 1-4, 4-11) [I-1255]	–	> 20	–
B2	–	> 20	–
Ac-[αAllylPro]D[tBuAla][B5(3)]DDAA[Phe(3-CF3)]L[PyrS2″]F[Bta]Q-NH2 (staple 1-4, 4-11 (inferred)) [I-1128]	8.1	–	–
Ac-[αAllylPro]D[tBuAla][B5(33)]DTAAFT[PyrS2]F[Bta]S-NH2 (staple 1-4, 4-11) [I-1263]	–	20	–
Ac-[αAllylPro]D[tBuAla][B5(4)]DDAAFL[PyrS2″][Phe(2-Cl)][Bta]-Alaol (staple 1-4, 4-11) [I-1250]	–	> 20	–
Ac-[αAllylPro]D[Cha][B5(24)]DDAAFS[PyrS2″][Phe(2-Cl)][Bta][dT]-NH2 (staple 1-4, 4-11) [I-1136]	14.9	–	–
Ac-[αAllylPro]D[Cha][B5(3)]DDAA[Phe(3-CF3)]S[PyrS2″]F[Bta]Q-NH2 (staple 1-4, 4-11 (inferred)) [I-1125]	> 20	–	–
{Propanoyl(3-OMe)}-[αAllylPro]D[tBuAla][B5(33)]DDAAFT[S8][Phe(2-Cl)][Bta]Q-NH2 (staple 1-4, 4-11) [I-1261]	–	19.8	–
Ac-[αAllylPro]D[tBuAla][B5(24)]DDAAFN[PyrS2″][Phe(2-Cl)][Bta][Lys(iPr)]-NH2 (staple 1-4, 4-11) [I-1130]	7.6	–	–
Ac-[αAllylPro]D[tBuAla][B5(18)]DNAAFT[PyrS2″][Phe(2-Cl)][Bta]Q-NH2 (staple 1-4, 4-11) [I-1014]	–	–	NanoBRET Abs IC50 (B-cat-Halo [1]): 14.3 µM
Ac-[αAllylPro]D[tBuAla][B5(24)]DD[Lys(iPr)]AFN[PyrS2″][Phe(2-Cl)][Bta]Q-NH2 (staple 1-4, 4-11) [I-1131]	18.8	–	–
Ac-[αAllylPro]D[tBuAla][B5(3)]DDAA[Phe(3-OMe)]L[PyrS2″][Phe(2-Cl)][Bta]Q-NH2 (staple 1-4, 4-11 (inferred)) [I-1121]	9.2	–	–

Binder	NanoBRET Abs IC50 (B-cat-Halo [2]) [µM]	NanoBRET Abs IC50 [3] [µM]	further results
B3	–	24	–
{Propanoyl(3-OMe)}-[αAllylPro]D[tBuAla][B5(33)]DDAAFN[PyrS2][Phe(2-Cl)][Bta][dT]-NH2 (staple 1-4, 4-11) [I-1259]	–	18.1	–
Ac-[αAllylPro]D[tBuAla][B5(4)]DDAAFT[PyrS2″][Phe(2-Cl)][Bta][Leu(ol)] (staple 1-4, 4-11) [I-1247]	–	> 20	–
Ac-[αAllylPro]D[tBuAla][B5(4)]DDAAFL[PyrS2″][Phe(2-Cl)][Bta][Thr(ol)] (staple 1-4, 4-11) [I-1249]	–	25.2	–
B4	> 20	–	–
Ac-[αAllylPro]D[Cha][B5(3)]DDAA[Phe(3-OMe)]S[PyrS2″][Phe(2-Cl)][Bta]Q-NH2 (staple 1-4, 4-11 (inferred)) [I-1118]	29.5	–	–
Ac-[αAllylPro]D[tBuAla][B5(24)]DDA[Lys(iPr)]FN[PyrS2″][Phe(2-Cl)][Bta]Q-NH2 (staple 1-4, 4-11) [I-1132]	> 20	–	–
Ac-[αAllylPro]D[tBuAla][B5(3)]DDAA[Phe(3-OMe)]L[PyrS2″]F[Bta]Q-NH2 (staple 1-4, 4-11 (inferred)) [I-1127]	5.4	–	–
Ac-[αAllylPro]D[tBuAla][B5(3)]DDAA[Phe(3-CF3)]L[PyrS2″][Phe(2-Cl)][Bta]Q-NH2 (staple 1-4, 4-11 (inferred)) [I-1122]	12.3	–	–
B5	28.5	–	–
Ac-[αAllylPro]D[2Nal][B5(3)]DDAAFT[PyrS2″][2C1F][Bta]S-NH2 (staple 1-4, 4-11) [I-1115]	24.3	–	–
Ac-[αAllylPro]D[Cha][B5(3)]DDAA[Phe(3-OMe)]S[PyrS2″]F[Bta]Q-NH2 (staple 1-4, 4-11 (inferred)) [I-1124]	> 20	–	–
Ac-[αAllylPro]D[Cha][B5(3)]DDAA[Phe(3-CF3)]S[PyrS2″][Phe(2-Cl)][Bta]Q-NH2 (staple 1-4, 4-11 (inferred)) [I-1119]	19.4	–	–
Ac-[αAllylPro]D[tBuAla][B5(18)]DNAAFS[PyrS2″][Phe(2-Cl)][Bta]Q-NH2 (staple 1-4, 4-11) [I-1018]	–	–	NanoBRET Abs IC50 (B-cat-Halo [1]): 25.8 µM
mPEG2-[αAllylPro]D[tBuAla][B5(5)]DDAAFN[PyrS2″][Phe(2-Cl)][Bta][dT]-NH2 (staple 1-4, 4-11) [I-1253]	–	> 20	–
